Among the data in doi:10.1101/2022.02.11.480115 (2022) are Kd values, retold here.

Common to all, as to assay: BLI
Background: Biolayer interferometry detects binding as a change in optical thickness at a sensor tip.

The target in experiment [1] is H1 HA (recombinant, Figure 4e) (influenza A virus (H1 subtype, strain …)).
Experiment [2] deals with H10 JD13 HA trimer (A/Jiangxi-Donghu/346/2013, H10N8) (influenza A virus …).
Experiment [3] addresses H7 AN13 HA trimer (A/Anhui/1/2013) (influenza A virus A/Anhui/1/2013 (H7N9)).
The target in experiment [4] is H6 HA (recombinant, Figure 4e) (influenza A virus (H6 subtype, strain …)).
In experiment [5] the target is H5 VN04 HA trimer (A/Vietnam/1203/2004) (influenza A virus A/Vietnam/1203/2004 …).
Experiment [6] deals with H1 CA09 stem.

B1: 789-203-3C12 Fab (Fab, V domains shown)
VH: QVQLQESGPGLVKPSEILSLTCAVSGGSFSSYCWGWIRQPPGKGLEWIGSICGSGGSNYLNPSLKSRVTLSVDTSKNQFSLILNSVTAADTAVYYCAREGITIFGVVIPRVLDSWGQGAVVTVSS
VL: DIQMTQSPSSLSASVGDTVTITCRASQSISSWLAWYQQKPGKAPNLLIYRASTLQSGVPSRFSGSGSGTDFTLTISSLQSEDFATYFCQQSTSSPFTFGPGTKLDIK
For the molecule B1, the dissociation constant (Kd) (in general, the free concentration of one partner at which half of the binding sites on the other are occupied at equilibrium, for simple one-to-one binding) worked out at 6.59 nM in experiment [1]; 81.6 nM in experiment [2]; 534 nM in experiment [3]; 27.5 nM in experiment [4]; 151 nM in experiment [5]; 5.66 nM in experiment [6].
